Laboratory results as given in patent US20110039729A1.

Legend:
[1] = target: soybean agglutinin (SBA), GalNAc-specific lectin (soybean) (UniProt P05046)
[2] = target: soybean agglutinin (SBA), GalNAc-specific lectin (soybean) (UniProt P05046); test: single SBA panning step, 8×10^10 aglycosylated phage applied
[3] = target: soybean agglutinin (SBA), GalNAc-specific lectin (soybean) (UniProt P05046); test: single SBA panning step, 8×10^6 cfu glycophage alone
[4] = target: soybean agglutinin (SBA), GalNAc-specific lectin (soybean) (UniProt P05046); test: single SBA panning step, glycophage with 10^2-fold excess of aglycosylated phage
[5] = target: soybean agglutinin (SBA), GalNAc-specific lectin (soybean) (UniProt P05046); test: single SBA panning step, glycophage with 10^4-fold excess of aglycosylated phage
[6] = target: soybean agglutinin (SBA), GalNAc-specific lectin (soybean) (UniProt P05046); test: single SBA panning step, 8×10^6 cfu glycophage mixed with an equal amount of aglycosylated phage

Chain of UniProt P05046 (P05046 33-285 limits assumed): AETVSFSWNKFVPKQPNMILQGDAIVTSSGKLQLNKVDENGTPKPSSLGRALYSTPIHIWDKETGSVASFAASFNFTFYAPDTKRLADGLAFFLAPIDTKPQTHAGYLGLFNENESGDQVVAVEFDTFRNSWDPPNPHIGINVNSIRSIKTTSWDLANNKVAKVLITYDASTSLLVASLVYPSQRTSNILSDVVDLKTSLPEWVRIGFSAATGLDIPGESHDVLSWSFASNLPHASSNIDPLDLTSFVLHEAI

| Substance | phage titer in the eluate [1] | infectious particles bound to SBA [2] | fold increase in phage titer in the eluate [1] | percent of phages recovered [3] | phages recovered [3] | percent of phage bound by SBA [4] | phage bound by SBA [4] | percent of phage bound by SBA [5] | phage bound by SBA [5] | percent of phage bound by SBA [6] | phage bound by SBA [6] |
| --- | --- | --- | --- | --- | --- | --- | --- | --- | --- | --- | --- |
| non-glycosylated AcrA-g3p fusion protein from TG1 pglmut cells (in lysates and displayed on phage) (from UniProt P69168 19-424) | 1000 cfu/ml | 38000 cfu |  |  |  |  |  |  |  |  |  |
| glycosylated AcrA-g3p fusion protein from TG1 pgl+ cells (in lysates and displayed on phage) (from UniProt P69168 19-424) | 1e+06 cfu/ml |  | 1000 fold | 96% | 7.7e+06 cfu | 93% | 7.4e+06 cfu | 79% | 6.3e+06 cfu | 96% | 7.8e+06 cfu |
